Results taken from patent US20080187980A1, “Method for identifying potential agonists or antagonists using the three-dimensional structure of caspase-7” (Vertex Pharmaceuticals Incorporated, priority 1999, published 2008).

T1: caspase-7 (Homo sapiens, UniProt P55210)
T1 sequence (P55210 24-198 limits assumed): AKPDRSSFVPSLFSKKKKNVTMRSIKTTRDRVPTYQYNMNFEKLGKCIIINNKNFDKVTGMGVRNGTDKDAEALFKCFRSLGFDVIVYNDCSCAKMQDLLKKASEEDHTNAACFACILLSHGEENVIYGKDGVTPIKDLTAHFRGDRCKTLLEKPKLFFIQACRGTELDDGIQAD
T1 sequence (P55210 207-303 limits assumed): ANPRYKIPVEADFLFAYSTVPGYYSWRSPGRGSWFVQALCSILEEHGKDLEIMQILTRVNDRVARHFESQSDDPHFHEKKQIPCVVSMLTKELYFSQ

T2: caspase-1 (Homo sapiens, UniProt P29466)
T2 sequence (P29466 120-297 limits assumed): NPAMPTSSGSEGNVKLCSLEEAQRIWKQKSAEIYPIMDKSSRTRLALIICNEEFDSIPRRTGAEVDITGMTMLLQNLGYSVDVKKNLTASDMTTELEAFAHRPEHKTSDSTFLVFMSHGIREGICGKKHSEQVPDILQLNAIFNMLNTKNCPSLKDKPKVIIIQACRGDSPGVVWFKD
T2 sequence (P29466 317-404 limits assumed): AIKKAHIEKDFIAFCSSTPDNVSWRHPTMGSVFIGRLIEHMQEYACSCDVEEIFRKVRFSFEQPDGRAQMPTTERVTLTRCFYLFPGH

T3: Caspase-5 (Homo sapiens, UniProt P51878)
T3 sequence (P51878 137-327 limits assumed): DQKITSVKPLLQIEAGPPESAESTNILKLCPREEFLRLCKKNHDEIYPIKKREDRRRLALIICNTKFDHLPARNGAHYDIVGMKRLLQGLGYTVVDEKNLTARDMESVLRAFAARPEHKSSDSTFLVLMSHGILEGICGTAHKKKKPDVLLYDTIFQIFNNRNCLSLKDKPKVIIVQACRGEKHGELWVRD
T3 sequence (P51878 347-434 limits assumed): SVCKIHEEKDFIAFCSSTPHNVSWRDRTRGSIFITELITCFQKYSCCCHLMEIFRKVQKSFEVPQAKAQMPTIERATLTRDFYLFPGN

T4: Caspase-4 (Homo sapiens, UniProt P49662)
T4 sequence (P49662 81-270 limits assumed): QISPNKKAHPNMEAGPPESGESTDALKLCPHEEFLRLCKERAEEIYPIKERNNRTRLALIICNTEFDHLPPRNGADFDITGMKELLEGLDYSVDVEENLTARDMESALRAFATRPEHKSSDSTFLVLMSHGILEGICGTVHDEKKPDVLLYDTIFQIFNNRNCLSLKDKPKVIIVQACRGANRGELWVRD
T4 sequence (P49662 290-377 limits assumed): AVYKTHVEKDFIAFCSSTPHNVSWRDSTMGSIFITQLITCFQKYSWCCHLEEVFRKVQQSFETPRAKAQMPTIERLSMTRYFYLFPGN

T5: Ac-DEVD-aminoemethylcoumarin
T5 chain: DEVD

B1: Triple mutant caspase-8 (residues 233-479; Lys to Arg at residues 246, 250 and 253; Pro370 and Val371 removed) (protein)
chain: RGYCLIINNHNFARARERVPRLHSIRDRNGTHLDAGALTTTFEELHFEIKPHDDCTVEQIYEILKIYQLMDHSNMDCFICCILSHGDKGIIYGTDGQEAPIYELTSQFTGLKCPSLAGKPKVFFIQACQGDNYQKGIPVETDSEEQPYLEMDLSSPQTRYIPDEADFLLGMATVNNCVSYRNPAEGTWYIQSLCQSLRERCPRGDDILTILTEVNYEVSNKDDKKNMGKQMPQPTFTLRKKLVFPSD
B2: Wild-type caspase-8 (protein)
chain 1: RGYCLIINNHNFAKAREKVPKLHSIRDRNGTHLDAGALTTTFEELHFEIKPHDDCTVEQIYEILKIYQLMDHSNMDCFICCILSHGDKGIIYGTDGQEAPIYELTSQFTGLKCPSLAGKPKVFFIQACQGDNYQKGIPVETD
chain 2: LSSPQTRYIPDEADFLLGMATVNNCVSYRNPAEGTWYIQSLCQSLRERCPRGDDILTILTEVNYEVSNKDDKKNMGKQMPQPTFTLRKKLVFPSD

Key:
[1] = target: T1, caspase-7; conditions: reported, Garcia-Calvo et al. 1998; cited from earlier work
[2] = target: T2, caspase-1; conditions: cited from earlier work; for Ki: reported, Garcia-Calvo et al. 1998
[3] = target: caspase-8 (Homo sapiens, UniProt Q14790); conditions: reported, Garcia-Calvo et al. 1998; cited from earlier work
[4] = target: T3, Caspase-5; conditions: Garcia-Calvo et al. 1998; cited from earlier work
[5] = target: T4, Caspase-4; conditions: Garcia-Calvo et al. 1998; cited from earlier work
[6] = test system: all other group II and group III caspases except caspase-8; conditions: group II and group III caspases other than caspase-8; cited from earlier work
[7] = test system: group III caspases; conditions: cited from earlier work
[8] = target: T5, Ac-DEVD-aminoemethylcoumarin

Chain of caspase-8 (Q14790 217-374 limits assumed, one chain of several): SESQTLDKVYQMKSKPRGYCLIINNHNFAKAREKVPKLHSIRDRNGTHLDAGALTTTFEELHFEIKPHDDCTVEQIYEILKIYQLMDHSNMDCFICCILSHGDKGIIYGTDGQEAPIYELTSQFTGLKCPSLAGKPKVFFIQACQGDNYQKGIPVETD

Molecule	Ki [2] [nM]	Ki [3] [nM]	kcat/Km [8]	further results
acetyl-Asp-Glu-Val-Asp-CHO [Ac-DEVD-CHO]	18	0.92	–	Ki [1]: 1.6 nM
AcWEHD-CHO (Ac-WEHD-aldehyde; SMILES CC(=O)N[C@@H](Cc1c[nH]c2ccccc12)C(=O)N[C@@H](CCC(=O)O)C(=O)N[C@@H](Cc1c[nH]cn1)C(=O)N[C@H](C=O)CC(=O)O)	0.056	21	–	Ki [4]: 43 nM; Ki [5]: 97 nM; inhibition of all other group II and group III caspases except caspase-8 (in words) [6]: poor inhibitor
Ac-YVAD-CHO: tetrapeptide aldehyde inhibitor, SEQ ID NO: 4	–	–	–	inhibitory potency against caspase-1 (in words) [2]: good inhibitory potency; inhibitory potency against group III caspases (in words) [7]: modest inhibitory potency
B1	–	–	both enzymes appear to be indistinguishable, yielding a kcat/Km of 1×10^5 Ml-s^1-^1	–
B2	–	–	both enzymes appear to be indistinguishable, yielding a kcat/Km of 1×10^5 Ml-s^1-^1	–
